The results in this text go back to article PMC4222680, “A Germline Polymorphism of Thymine DNA Glycosylase Induces Genomic Instability and Cellular Transformation”.

The target of one data set is TDG WT (human, UniProt Q13569 1-410). In words: EMSA; 20 mM HEPES pH 7.3, 1 mM EDTA, 10 mM (NH4)2SO4, 1 mM DTT, 0.2% Tween-20, 30 mM KCl; 2 nM DNA, 30 min at room temperature; 6% native PAGE at 4 C. The conditions noted are these: protein: recombinant; tags: N-terminal 6xHis (pET28a); label: 5'-32P on the template oligonucleotide; blunt. Background: In EMSA bound probe runs differently from free probe, usually more slowly.
TDG WT, sequence (Q13569 whole entry): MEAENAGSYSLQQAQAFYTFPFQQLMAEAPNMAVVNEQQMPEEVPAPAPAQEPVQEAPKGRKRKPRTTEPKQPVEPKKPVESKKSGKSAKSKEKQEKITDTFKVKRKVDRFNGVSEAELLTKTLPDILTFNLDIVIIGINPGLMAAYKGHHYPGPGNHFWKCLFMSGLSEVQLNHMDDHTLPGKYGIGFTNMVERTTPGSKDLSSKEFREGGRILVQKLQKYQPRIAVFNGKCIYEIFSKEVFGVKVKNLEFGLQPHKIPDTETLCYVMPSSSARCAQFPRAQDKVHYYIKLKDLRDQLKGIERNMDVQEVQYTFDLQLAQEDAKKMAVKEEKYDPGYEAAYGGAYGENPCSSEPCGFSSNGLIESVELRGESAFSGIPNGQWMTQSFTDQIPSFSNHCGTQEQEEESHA

The next data set concerns the target TDG G199S (human (rs4135113 variant), UniProt Q13569 1-410, G199S). Described as above. The conditions noted are these: protein: recombinant; tags: N-terminal 6xHis (pET28a); label: 5'-32P on the template oligonucleotide; blunt.

TDG G199S, sequence (Q13569 whole entry G199S): as the sequence (Q13569 whole entry) above, with G199S counted along it

B1: 28-mer 5-FU:A (dsDNA)
DNA 1: CAGCTCTGTACATGAGCAGTGGTGACAC
DNA 2: GTGTCACCACTGCTCAUGTACAGAGCTG
modifications: 5-fluorouracil (X, written U) at position 17 of strand 2, opposite A12 of strand 1
B1: the Kd (commonly the concentration at which binding is half-saturated) worked out at 77 ± 13 nM with TDG WT and 41 ± 5 nM in the data set with TDG G199S.
